Data: patent US20210355229A1 (JIANGSU HENGRUI MEDICINE, published 2021)

T1: human OX40-His protein (sinobiological # 10481-H08H) (human, UniProt P43489 29-216)
T1 construct: Bought; analyte in Biacore; not shown: His tag
T1 sequence (looked up): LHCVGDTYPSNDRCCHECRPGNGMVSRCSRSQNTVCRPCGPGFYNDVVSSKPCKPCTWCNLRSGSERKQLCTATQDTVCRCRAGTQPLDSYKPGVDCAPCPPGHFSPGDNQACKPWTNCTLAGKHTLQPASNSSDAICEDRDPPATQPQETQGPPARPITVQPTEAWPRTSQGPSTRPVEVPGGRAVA

T2: human OX40-FC-biotin (human OX40 recombinant protein with Fc tag, Acro Biosystems OX40-H5255, labeled with … (human, UniProt P43489 29-216, labeled with biotin (site not stated)))
T2 construct: range 29-216; Bought (Acro Biosystems OX40-H5255; printed once as OXO-H5255), expressed in HEK293; also called human Bio-OX40-FC; not shown: Fc tag of the bought protein
T2 sequence (looked up): T1 sequence (looked up)

T3: human OX40 on Jurkat-NF-Kb luc-hOX40 cells (human, UniProt P43489 29-277)
T3 sequence (looked up): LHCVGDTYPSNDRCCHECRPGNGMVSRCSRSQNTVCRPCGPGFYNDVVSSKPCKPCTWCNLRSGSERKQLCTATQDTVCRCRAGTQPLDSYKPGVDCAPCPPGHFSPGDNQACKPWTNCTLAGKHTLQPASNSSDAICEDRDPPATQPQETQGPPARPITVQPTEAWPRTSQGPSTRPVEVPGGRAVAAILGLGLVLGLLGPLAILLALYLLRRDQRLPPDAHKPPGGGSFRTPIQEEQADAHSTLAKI

B1: humanized antibody 2G3 (antibody, human IgG1, kappa, V domains shown)
VH: QVQLQESGPGLVKPSETLSLTCTVSGYSISRYSVHWVRQPPGKGLEWIGMIWDGGNTDYNAALKSRFTISRDNAKNTLYLQMNSLRAEDTAVYYCARNPLYFSYAMDYWGQGTLVTVSS
VL: DIQMTQSPSSLSASVGDRVTITCRASQDISNYLNWYQQKPDQSPKLLIIYTSRLQSGVPSRFSGSGSGTDYTLTISSLQPEDFATYYCQQVNTFPFTFGQGTKLEIKR
notes: also called 2G3 (hu2G3 VH1.1 + hu2G3 VL1)
B2: humanized antibody hu4B5-V7 (antibody, human IgG1, kappa, V domains shown)
VH: QVQLKESGPGLVKPSETLSLTCTVSGFSLTSYGLHWFRQPPGKGLEWIGVIWSGGSTDYNAAFISRVTISKEDSKSQVSLKLSSVTAADTAVYYCAREEYDVWGQGTTVTVSS
VL: DIQMTQSPSSLSASVGDRVTITCRASQDISNYLNWYQQKPGGVPKLLIYYTSRLHSGVPSRFSGSGSGTDYTLTISSLQPEDVATYYCQQGNTLPWTFGGGTKVEIKR

How the values were obtained:
[1] = target: T1, human OX40-His protein (sinobiological …); test: SPR (Biacore T200), antibody coupled to CM5 chip, OX40-His as analyte, 1:1 model
Method: Using the kit provided by Biacore, the recombinant anti-OX40 antibody to be tested of the present invention was covalently connected to the CM5 (GE) chip by NHS standard amino coupling method. A series of concentration gradients of human OX40-His protein (sinobiological # 10481-H08H) diluted in the same buffer were then loaded into each cycle at a flow rate of 30 μL/min. After loading, the chip was regenerated using regeneration reagent provided in the kit. The antigen-antibody binding kinetics was traced for 3 minutes, and the dissociation kinetics was traced for 10 minutes. The resulting data were analyzed by using BIAevaluation software (GE) with 1:1 (Langmuir) binding model.

[2] = target: T2, human OX40-FC-biotin (human OX40 …); test: blocking ELISA: OX40L coated, biotin-OX40-Fc pre-incubated with antibody, SA-HRP
Method: The well-plate was coated with the OX40 ligand (Acrobiosystem, OXL-H52Q8), blocked, added the gradient-diluted antibody to be tested (the antibody was diluted in a solution comprising human Bio-OX40-FC (Acrobiosystem, OX40-H5255, labeled with biotin), pre-incubated for 40 minutes, and then added into the plate), incubated for 40 minute, and washed. SA-HRP (Jackson Immunoresearch, 016-030-084) was then added and incubated for 40min. The developing solution and stop solution were added, and the OD value was measured.

[3] = target: T3, human OX40 on Jurkat-NF-Kb luc-hOX40 …; test: cell-based or functional assay
[4] = target: T2, human OX40-FC-biotin (human OX40 …); test: capture ELISA, biotin-OX40-Fc
Method: 20xPBS buffer was diluted to 1 xwith deionized water. […] 100 μL of the diluted primary antibody was added to each well (the antibody to be tested was 5-fold diluted from the concentration of 10000 ng/ml, resulting in seven gradients, namely 10000 ng/ml, 2000 ng/ml, 400 ng/ml, 80 ng/ml, 16 ng/ml, 3.2 ng/ml, and 0.64 ng/ml, blank wells merely contained dilution solution, i.e., 2.5% skimmed milk in PBST), and incubated at 37° C. for 40 minutes. The plate was washed for 4 times with PBST, human OX40-FC-biotin (Acro biosystem, OXO-H5255, labeled biotin) was diluted with 2.5% skimmed milk in PBST, 100 μl was added to each well, incubated at 37° C. for 40 min, and the plate was washed for 4 times with PB ST. 100 μL TMB developing solution was added to each well, incubated for 3-15 minutes in dark at room temperature, 50 μl stop solution (1M sulfuric acid) was added to each well. The parameters were set for the microplate reader, the OD value was read at 450-630nm, and the test data were saved.

Binder | Kd [1] [nM] | koff [1] [s⁻¹] | kon [1] [M⁻¹ s⁻¹] | IC50 [2] [nM] | EC50 (nM), activation of reporter gene (luciferase, Jurkat-NF-Kb luc-hOX40 cells with Raji cells, anti-CD3 coated) [3] [nM] | EC50 [4] [µg/mL]
B1 | 4.63 | 0.00202 | 437000 | 1.88 | 2.29 | 
B2 | 2.81 | 0.000369 | 131000 | 0.725 | 0.341 | 0.254
